Common to all, as to test: cell_activity; CHO iGFFP reporter
In one data set the target is T1, LOX 3-4 m.108 (artificial (I-CreI derived)).
T1 chain: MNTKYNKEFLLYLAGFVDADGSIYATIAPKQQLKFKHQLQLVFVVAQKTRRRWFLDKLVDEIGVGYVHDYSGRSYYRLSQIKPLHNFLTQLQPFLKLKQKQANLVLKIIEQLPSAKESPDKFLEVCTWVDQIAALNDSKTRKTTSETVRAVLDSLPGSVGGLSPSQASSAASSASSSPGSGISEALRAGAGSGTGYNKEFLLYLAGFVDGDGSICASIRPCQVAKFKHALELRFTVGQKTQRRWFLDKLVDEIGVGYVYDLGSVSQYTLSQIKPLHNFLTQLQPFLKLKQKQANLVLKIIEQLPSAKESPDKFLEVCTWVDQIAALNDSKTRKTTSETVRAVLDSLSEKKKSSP
The text has this:
(§1) A CHO cell reporter system (see WO/2012/167192, FIG. 3) was used to determine whether the engineered meganucleases generated in these studies could recognize and cleave the modified LOX 3-4 recognition sequences in Table 87. To perform the assay, a pair of CHO cell reporter lines were produced, which carried a non-functional Green Fluorescent Protein (GFP) gene expression cassette integrated into the genome of the cell. The GFP gene in each cell line was interrupted by a pair of recognition sequences such that intracellular cleavage of either recognition sequence by a meganuclease would stimulate a homologous recombination event resulting in a functional GFP gene. In both cell lines, one of the recognition sequences was derived from the LOX 3-4 recognition sequence (i.e., those sequences disclosed in Table 87), and the second recognition sequence was specifically recognized by a control meganuclease called “CHO 23/24.” CHO reporter cells comprising a recognition sequence derived from the LOX 3-4 recognition sequence and the CHO 23/24 recognition sequence are referred to herein as “test cells.”
(§2) Novel engineered meganucleases derived from the LOX 3-4x.109 meganuclease were prepared by making amino acid substitutions at one or more positions in the first subunit. These engineered meganucleases were then evaluated for cleavage of the LOX 3-4 recognition sequence modified to have a GTAG center sequence (SEQ ID NO: 390) in the CHO reporter assay according to Example 1. Novel meganucleases which were modified to comprise the residues recited in the tables below were capable of cleaving the LOX 3-4 recognition sequence having a GTAG four base pair center sequence.

The target in another data set is T2, LOX 3-4 m.97 (artificial (I-CreI derived)).
T2 chain: T1 chain
Text: as §1, §2

A further data set has as its target T3, LOX 3-4 m.111 (artificial (I-CreI derived)).
T3 chain: T1 chain with G72N
Text: as §1, §2

The next data set deals with T4, LOX 3-4 m.149 (artificial (I-CreI derived)).
T4 chain: T1 chain with A19S, K48A, R50K, S71G, G72R, R73A, K139R
Text: as §1
(§3) Novel engineered meganucleases derived from the LOX 3-4x.109 meganuclease were prepared by making amino acid substitutions at one or more positions in the first subunit. These engineered meganucleases were then evaluated for cleavage of the LOX 3-4 recognition sequence modified to have a GTAT center sequence (SEQ ID NO: 400) in the CHO reporter assay according to Example 1. Novel meganucleases which were modified to comprise the residues recited in the tables below were capable of cleaving the LOX 3-4 recognition sequence having a GTAT four base pair center sequence.

In a further data set the target is T5, LOX 3-4 m.140 (artificial (I-CreI derived)).
T5 chain: T1 chain with A19S, K48A, S71G, G72R, R73A, K139R
Text: as §1, §3

For a further data set, the target named is T6, LOX 3-4 m.152 (artificial (I-CreI derived)).
T6 chain: T1 chain with A19S, K48A, S71N, G72R, R73A, S74A
Text: as §1, §3

For another data set, the target named is T7, LOX 3-4 M.36 (artificial (I-CreI derived)).
T7 chain: T1 chain with S71R, G72H, R73V, S74T, K139R
Text: as §1
(§4) Novel engineered meganucleases derived from the LOX 3-4x.109 meganuclease were prepared by making amino acid substitutions at one or more positions in the first subunit. These engineered meganucleases were then evaluated for cleavage of the LOX 3-4 recognition sequence modified to have a GTGA center sequence (SEQ ID NO: 434) in the CHO reporter assay according to Example 1. Novel meganucleases which were modified to comprise the residues recited in the tables below were capable of cleaving the LOX 3-4 recognition sequence having a GTGA four base pair center sequence.

The target in a further data set is T8, LOX 3-4 M.39 (artificial (I-CreI derived)).
T8 chain: T1 chain with A19S, K48A, G72K, R73V, K139R
Text: as §1, §4

A further data set concerns the target T9, LOX 3-4 M.47 (artificial (I-CreI derived)).
T9 chain: T1 chain with K48R, S71G, G72S, R73V, Q80E
Text: as §1, §4

Substitutions are numbered along the chain they refer to.

B1: LOX 3-4 GTAG (dsDNA)
DNA 1: GTATAGCATGTAGTATACGAAG
DNA 2: CTTCGTATACTACATGCTATAC
As for B1, the activity with LOX 3-4 m.108 was found to be 19.7 % GFP; with LOX 3-4 m.97, 17.2 % GFP; with LOX 3-4 m.111, 17 % GFP.

B2: LOX 3-4 GTAT (dsDNA)
DNA 1: GTATAGCATGTATTATACGAAG
DNA 2: CTTCGTATAATACATGCTATAC
Consider B2, for which the activity was 12.9 % GFP in the data set with LOX 3-4 m.149, 13.1 % GFP with LOX 3-4 m.140 and 4.43 % GFP in the data set with LOX 3-4 m.152.

B3: LOX 3-4 GTGA (dsDNA)
DNA 1: GTATAGCATGTGATATACGAAG
DNA 2: CTTCGTATATCACATGCTATAC
As to B3, the activity in the data set with LOX 3-4 M.36 was determined as 2.75 % GFP; with LOX 3-4 M.39 it was 8.66 % GFP; with LOX 3-4 M.47, 10.1 % GFP.

Values taken from patent US20220195407, “OPTIMIZATION OF ENGINEERED MEGANUCLEASES FOR RECOGNITION SEQUENCES” (Precision BioSciences, Inc., published 2022).
